Assay results as given in the nanobody polyreactivity screen of Harvey et al. (2022).

Assay: yeast display, Sf9 membrane polyspecificity reagent, FACS + sequencing; frameworks hold sequencing errors
Method in brief: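 Sorting gates, low and high (top ~1%), were placed on anti-HA fluorescence to track expression and on streptavidin fluorescence to track reagent binding. A clone's polyreactivity label is taken from the gate it came out of. The reagent was 10% biotinylated, detergent-solubilized Sf9 membrane, applied for 1 hour at 4 °C to galactose-induced yeast display cells.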

Row | Sequence | polyreactivity (PSR sort gate)
1 | QVQLVESGGGLVQAGGSLRLSCADTGRIFTRYAMGWYRQAPGKERELVASIRSGGSTYYADSVKGRFTISRDNAKNTVYLQMNSLKPEDTAVYFCAKGTFDLHYRKRYNYWGQGTQVTVSS | low polyreactivity
2 | QVQLVESGGGLVQAGGSLRLSCAASGSTFYWYAMGWYRQAPGKERELVAAISSGGSTYYADSVKGRFTISRDNAKNTVYLQMNSLKPEDTAVYYCAAQTPYYLWYDTGDYWGQGTQVTVSS | high polyreactivity
3 | QVHLVESGGGLVQAGGSLRLSCAPSGNIFFSNAMGWYRQAPGKERELVASISQSGGSTYYADSLKGRFTISRDNAKNTVYFQMNSLKPEDTAVYYCNAFSITFYDFNSWGQGTQVTVSS | low polyreactivity
4 | QVQLVESGGGLVQAGGSLRLSCAASGSTFDVYAMGWYRQAPGKERELVAAIRSSGGSTFYADSVKGRFTISRDNAKNIVYLQMNSLKPEDTAVYYCAARSFVVSGYNKYYEYGYWGQGTQVTVSS | low polyreactivity
5 | QVQLQESGGGLVQAVGSLRLSCAASGYISSWYPMGWYRQAPGKEREFVATIAPGATTYYADSVKGRFTISRDYAKKTVYLQMNSLKPEDTAVYYCAAGPEKNDFYSYWGQGTQVTVSS | low polyreactivity
6 | QVQLVESGGGLFQAGGSLRLSSAASGSTFSYYVMGWYRQAPGKERELVAAIDYSGDSTYYADSVKGRFTLSRDNAKNTVYLQMNSLKPEDTAVYYCAADDYPWNRYEYWGQGTQVTVSS | low polyreactivity
7 | QVQLVESGGGLVQAGGSLRLSCAASGYIFEVNAMGWYRQAPGKERELVATIDTSSGSTNYADSVKGRFTISRDNAKNTVDLQMNSLKPEDTAVYYCAADDETVFLQDDYWGQGTQVTVSS | low polyreactivity
8 | QVQLQESGGGLVQAGGSLRLSCAASGYIPLAQTIGSYRQAPGKEREFVASIALGSSTYYTDSVKGSFTISRDNAKTTVYLQMNSLKPEDTAVYYCAARVGACYAHDYWGQGTQVTVSS | low polyreactivity
9 | QVQLVESGGGLVQAGASLRLSCAASGFTFGWYAMGWSRQARGKERELVAAISYSGGSTYYADSVKGRFTISRDNAKNTVYLQMISLKPEDTAVYYCAALYTGDSGYWGQGTQVTVSS | high polyreactivity
10 | QVQLVESGGGLVQAGGSLRLSCAASGRIFSGYAMGWYIQAHGKERELVAAISSTGGTYYADSVKGRFTISRDNAKNTVYLQMNSLKPEDTAVYYFAARYRTLTKYYWGQGTQVTVSS | low polyreactivity
11 | QVQLVESGGGLVQAGGSLRLSCAASGRIFTLYAMGWYRQAPGKERELVAGISRSGGSTYYADSVKGRFTISRDNAKNTVYFQMNSLKPEDTAVYYCNAVPIYYAWRRNKPFDYWGQGTQVTVSS | low polyreactivity
12 | QVQLVESGGGLVQAGGSLRLSCAASGFNFERYAMGWYRQAPGKERELVAAISSRGGGTYYADSVKGRFTISRDNAKNTVYLQMNSLKPEDTAVYYCNRPYDYSYNYWGQGTQVTVSS | high polyreactivity
13 | QVQLVESGGGLVQAGGSLRLSCAASGFNFLGNAMGWYRQAPGKERELVAAISSGGSTYADSVKGRFTISRDNAKNTVYLQMISLKPEDTAVYYCAVDRAFRAQNYHEYEYWGQGTQVTVSS | low polyreactivity
14 | QVQLVESGGGLVQAGGSLRLSCAASGFIQDLYVMGWYRQAPGKERELVAAISSVGSTYADSVKGRFTISRDNAKNTVYLQMNSLKPEDTAVYYCAKDGTDYDYNYWGQGTQVTVSS | low polyreactivity
15 | QVQLVEAGGGLVQAGGSLRLSCAASGSIFVGYAMGWYRPAPGKEREFVAAINYRGGATYYADSVKGRFTISRDNAKNTDYLQMNSLQPEDTAVYYCAVGGWVIYPASLDYWGQGTQVTVSS | low polyreactivity
16 | QVQLVESGGGLVQAGGSLRLSCAASGRIFSEYAMGWYRQAPGKERELVAAISKSGGRTYYADSVKGRFTISRDNAKNTVYLKMNSLKPEDTAVYYCNARAVYPAGYAYDYWGQGTQVTVSS | high polyreactivity
17 | QVQLVESGGGLLQAGGSLRLSCAASGFTFGGNAMGWYRQAPGKERELVAAITSRGGSTYYADSVKGRFTISRDNAKNTFYLQMYSLKPEDTAVYYCAAQFTTRYDWGQGTQVTVSS | high polyreactivity
18 | QVQLVESGGGLVQAGGSLRLSCAASGRTFYPYAMGWYRQAPGKERELVAAIDYSSATTYYADSVKGRFTISRDNAKNTVYLQMNSLKPEDTAVFYCARVGIGVGWTKLNYWGQGTQVTVSS | low polyreactivity
19 | QVQLVESGGGLVQAGGSLRLSCAASGRIFDYYTMGWYRQAPGKERELVAGINSGDSTYYADYVKGRFTISRDNAKNTVYLQMNSLKPEDTAVYYCAASADWWYEYWGQGTQVTVSS | high polyreactivity
20 | QVQLVESGGGLVQAGGSLRLSCAASGRTFVYNAMGWYRQAPGKERELVAAIDGGGDRTYYADSVKGRFTISRDNAKNTVYLQMNSLKPEDTAVYYCARDPVVTYYYSYPEGDYWGQGTQVTVSS | low polyreactivity
21 | QVQLVESGGGLVQAGGSLRLSCAASGFTFSKYAMGWYRQAPGKEREFVAAISSRGGRTYYADSVKGRFTISRDNAKNTVYLQMNSLKPEDTAVYYCAVDVHLVTEYDYWGQGTQVTVSS | high polyreactivity
22 | QVQLVESGGALVQAGGSLRLSCAASGLTFRDNAIGWYRKAPGKERELVDAISTNGGSTYYADSVKGRFTISRDNAKNTVYLQMYSLKPEVTAVYYCAADYDYQYRYYYWGQGTQVTVTS | low polyreactivity

Row | Sequence | polyreactivity (PSR sort gate)
23 | QVQLEESGGGLVQAGGSLRLSCAASGSIIWSYAMGWYRQAPGKERELVAVINWSGGSTYYADSVKGRFTISRDNAKNTVYLQMNSLKPEDTAVYYCNKDLGPTKRPFTFDYWGQGTQVTVSS | low polyreactivity
24 | QVQLVESGGGLVQAGGSLRLSCAASGIIFYDYAMVWYRQAPGKERELVAAISWGGGSTSYADSVKGRFTISRDNAKNTVYLQMNSLKPEDTAVYYCNKVSLSKRRDYYWGQGTQVTVSS | high polyreactivity
25 | QVQLVESGGGLVQAGGSLRLSCAASGRTFYPNTMGWYRQAPGKERELVATITRSGGNTYADSVKGRFTISRDNAKNTVYLQMNSLKPEDTAVYYCNADQRRSYWLVSQRYDYWGQGTQVTVSS | low polyreactivity
26 | QVQLVESGGGLGQAGGSLRSSCAASGSIICYYAMGWYRQAPGKEWELVATITSGGSTSYADSVKGRFTISRDNAKNTVHLQMNSLKPEDTAVYYCAARNVTKSTYNYWGQGTQVTVSS | low polyreactivity
27 | QVQLVESGGGLVQAGGSLRLSCAASGRILNINAMGWYRQAPGQERELVAAITWRGGRTFYADSVKGRFTISRDNAKNTVYLQMNSLKPEDTAVYYCAASSNTWYPTGYYWGQGTQVTVSS | high polyreactivity
28 | QVQRVESGGGLVQAGGSLRLSCAASGSIFGPNTIGWSRQAPGKERDLVAAITRSGGSTYYADSVKGRFTISRDNAKNTVYLQMNSLKPEDTAVYYCAVGDGFEYDWGQGTQVTVSS | low polyreactivity
29 | QVQLVESAGGLFQAGGSLRLSCAASGRTFYSNTMGWYRQAPGKEREFVAAIPSIVGSTYYADSVKGRFTISRDNSKNTVYLQMKSLKPEDTAVYDCAVTDYYSYLLRYDSWGQGTEVTVSS | low polyreactivity
30 | QVHLVESGGGLVQAGGRLRLSCAASGRTFFWYAMGWYRQAPGKEREFVAAITWRTGSTYYADSVKGRFTLSRDNAKNTVYLQMNSLKPEDTAVYYCAGEFPWSFATYYSWGQGTQVTVSS | high polyreactivity
31 | QVQLVESGGGLVQAGGSLRLSCAASGSTFYWYAMGWYRQAPGKERELVAAIDSGGSTNYADSVKGRFTISRDNAKNTVYLQMNSLKPEDTAVYYCATVYYTIWDPTYEYDYWGQGTQVTVSS | low polyreactivity
32 | QVQLVESVGGLVQAGGRLRLSCAASGSIFLYNAMGWYRQAPGKERELVAVINGRGGTYYADSVKGRFTISRDNAKNTVYLQMNSLKPEDTAVYYCATGYPPSAGYDSVRFEDRDSWGQGTQVTVSS | low polyreactivity
33 | QVQLVESGGGLVQAGGSLRLSCAASGFIFGTYAMGWYIQAPGKERELVAAISTGATYYADSVKGRFTISRDNAKNTVYLQMNSLKPEDTAVYYCAAPRTYYLRYRWYLYEGDYWGQGTQVTVTS | low polyreactivity
34 | QVQLVESGGGLVQAGGSLRLSCAASGFTFDFYAMGWYRQAPGKERELVAAISKNDGTTYYADSVKGRFTISRDNAKNTVYLQMYSLKPVDTAVYYCAAESGYPVYTYVSSGDYWGQGTQVTVSS | low polyreactivity
35 | QVQLVESGGGLVQAGGSLRLSCDASGSTFSYYAMGGYRQAPGKERELVAAISGRGGSTYYADSVKGRFTISRDNAKNTVYLQMNSLKPEDTAVYYCAKGRLYTAYGLYSWGQGTQVTVSS | high polyreactivity
36 | QVQLVESGGGLVQAGGSLRLSCAASGFTFYLYAMGWYRQAPGKERELVAAINSGSSTYYADSVKGRFTISRDNAKNTVYLQMNSLNPEDTAVYYCATDTDRTMDYWGQGTQVTVSS | low polyreactivity
37 | QVQLVESGGGLFQAGGSLRLSCAPSGSIFTTYAMGWYRQAPGKERELVAAITDTCSTNYADSVKGRFTISRDNAKNTVYLQMNSLKPEDTAVYYCAVDLGYEYDWGQGTEVTVSS | low polyreactivity
38 | QVQLVESGGGLVQAGGSLRLSCAGSGIIFFPYAMGWYRPAPGKERELVASINISDSSTYYADSVKGRFTISRDNAKNTVYLQMNSLKPQDTAVYYCAADNRGDSWYWHGYWGQGTQVTVSS | low polyreactivity
39 | QVQLVESGGGLVQAGGILRLSCAASGSTFDYNTMGWYRQAPGKERELVAAISESGGSTYYADSVKGRFTISRDNAKNTVYLQMNSLKPEDTAVYYCATDDFGGYFGEYDYWGQGTQVTVSS | low polyreactivity
40 | QVQLVESGGGLVQAGGSLRLSCAASGRTFLIYAMGWYRQAPGKERELVAAITSGGRTKYADSVKGRFTISRDNAKNTVYLQMNSLKPEDTAVYYCAARTGVYRYSRKFYYWGQGTQVTVSS | high polyreactivity
41 | QVQLVESGGGLDQAGGSLRLSCAASGSIFVRNAMGWYRQAPGKERELVASISRRGGSTYYADSVKGRFTISRDNAKNTVYLQMNSLKPEDTAVYYCAAVVRRAPEFDYWGQGTQVTVSS | high polyreactivity
42 | QVQLVESGGGLVQAGGSLRLSCAASGSTFYYYTMGWYRQAPGKERELVDISWDGDSTYSADSVKGRFTISRDNAKNTVYLQMNSLKPEDTAVYYCAAADYYLPDDVSDYVDANFDYWGQGTQVTVSS | low polyreactivity
43 | QVQLVESGGRLVQAGVSLRLSCAAGGRTFGINAMGWYRQAPGKERELVARIRKTVGSTYYADSVKGRFTISRDNAKNTVYLQMNSLKPEDTAVYYCNADYDAYPRYIRYGYWGQGTQVTVSS | high polyreactivity
